Data as given in patent publication US20160272693A1 (ZEALAND PHARMA A S, published 2016).
*1 amine or outer side, *2 acyl side, *3 side chain or, on linkers, in order; H or OH if unused. Bridges are numbered along the chain shown (N, C = ends). [ ]: non-standard residue; d: D form. The star is where a group is joined. C20 diacid = O=C(O)CCCCCCCCCCCCCCCCCCC(=O)*; γGlu = O=C(O)[C@H](CCC(=O)[*:2])N[*:1]; Hyp = O=C(O)[C@@H]1C[C@@H](O)CN1; NMeI = CC[C@H](C)[C@H](NC)C(=O)O; Aad = N[C@@H](CCCC(=O)O)C(=O)O; Sar = CNCC(=O)O

T1: human amylin receptor 3 (hAMYR3), hCTR2 co-expressed with human receptor activity modifying protein 3 (hRAMP3) (human, UniProt P30988 25-474; O60896 24-148)
T1 sequence (looked up) 1: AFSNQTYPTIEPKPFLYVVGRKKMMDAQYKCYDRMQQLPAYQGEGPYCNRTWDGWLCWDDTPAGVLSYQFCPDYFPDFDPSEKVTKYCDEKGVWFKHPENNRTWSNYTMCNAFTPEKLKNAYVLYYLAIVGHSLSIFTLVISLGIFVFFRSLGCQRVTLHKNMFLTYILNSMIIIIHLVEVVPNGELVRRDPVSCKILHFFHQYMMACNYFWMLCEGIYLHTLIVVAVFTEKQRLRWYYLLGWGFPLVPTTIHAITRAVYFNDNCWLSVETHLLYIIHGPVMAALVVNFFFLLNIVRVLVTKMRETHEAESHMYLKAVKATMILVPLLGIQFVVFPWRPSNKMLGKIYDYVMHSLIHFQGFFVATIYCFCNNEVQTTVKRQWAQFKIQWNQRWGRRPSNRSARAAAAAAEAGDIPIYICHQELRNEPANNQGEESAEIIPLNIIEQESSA
T1 sequence (looked up) 2: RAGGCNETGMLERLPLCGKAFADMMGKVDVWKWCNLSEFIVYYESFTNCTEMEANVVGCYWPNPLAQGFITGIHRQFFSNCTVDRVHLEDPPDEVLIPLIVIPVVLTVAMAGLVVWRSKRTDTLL

B1: [19CD]-isoGlu-R-C( )-QTAT-C( )-ATDRLA-Aad-FLQRF-Gly(Me)-A-Ile(Me)-LSSTEVGSNT-Hyp-NH2 (Compd. 95) (peptide)
peptide: {C20 diacid}-[γGlu]RCQTATCATDRLA[Aad]FLQRF[Sar]A[NMeI]LSSTEVGSNT[Hyp]-NH2
modifications: disulfide 3-8
SMILES: CC[C@H](C)[C@@H](C(=O)N[C@@H](CC(C)C)C(=O)N[C@@H](CO)C(=O)N[C@@H](CO)C(=O)N[C@H](C(=O)N[C@@H](CCC(=O)O)C(=O)N[C@H](C(=O)NCC(=O)N[C@@H](CO)C(=O)N[C@@H](CC(N)=O)C(=O)N[C@H](C(=O)N1C[C@H](O)C[C@H]1C(N)=O)[C@@H](C)O)C(C)C)[C@@H](C)O)N(C)C(=O)[C@H](C)NC(=O)CN(C)C(=O)[C@H](Cc1ccccc1)NC(=O)[C@H](CCCNC(=N)N)NC(=O)[C@H](CCC(N)=O)NC(=O)[C@H](CC(C)C)NC(=O)[C@H](Cc1ccccc1)NC(=O)[C@H](CCCC(=O)O)NC(=O)[C@H](C)NC(=O)[C@H](CC(C)C)NC(=O)[C@H](CCCNC(=N)N)NC(=O)[C@H](CC(=O)O)NC(=O)[C@@H](NC(=O)[C@H](C)NC(=O)[C@@H]1CSSC[C@H](NC(=O)[C@H](CCCNC(=N)N)NC(=O)CC[C@H](NC(=O)CCCCCCCCCCCCCCCCCCC(=O)O)C(=O)O)C(=O)N[C@@H](CCC(N)=O)C(=O)N[C@@H]([C@@H](C)O)C(=O)N[C@@H](C)C(=O)N[C@@H]([C@@H](C)O)C(=O)N1)[C@@H](C)O
B2: [19CD]-isoGlu-R-C( )-QTAT-C( )-ATDRLAHFLQRSSF-Gly(Me)-A-Ile(Me)-LSSTEVGSNTP-NH2 (Compd. 92) (peptide)
peptide: {C20 diacid}-[γGlu]RCQTATCATDRLAHFLQRSSF[Sar]A[NMeI]LSSTEVGSNTP-NH2
modifications: disulfide 3-8
SMILES: CC[C@H](C)[C@@H](C(=O)N[C@@H](CC(C)C)C(=O)N[C@@H](CO)C(=O)N[C@@H](CO)C(=O)N[C@H](C(=O)N[C@@H](CCC(=O)O)C(=O)N[C@H](C(=O)NCC(=O)N[C@@H](CO)C(=O)N[C@@H](CC(N)=O)C(=O)N[C@H](C(=O)N1CCC[C@H]1C(N)=O)[C@@H](C)O)C(C)C)[C@@H](C)O)N(C)C(=O)[C@H](C)NC(=O)CN(C)C(=O)[C@H](Cc1ccccc1)NC(=O)[C@H](CO)NC(=O)[C@H](CO)NC(=O)[C@H](CCCNC(=N)N)NC(=O)[C@H](CCC(N)=O)NC(=O)[C@H](CC(C)C)NC(=O)[C@H](Cc1ccccc1)NC(=O)[C@H](Cc1c[nH]cn1)NC(=O)[C@H](C)NC(=O)[C@H](CC(C)C)NC(=O)[C@H](CCCNC(=N)N)NC(=O)[C@H](CC(=O)O)NC(=O)[C@@H](NC(=O)[C@H](C)NC(=O)[C@@H]1CSSC[C@H](NC(=O)[C@H](CCCNC(=N)N)NC(=O)CC[C@H](NC(=O)CCCCCCCCCCCCCCCCCCC(=O)O)C(=O)O)C(=O)N[C@@H](CCC(N)=O)C(=O)N[C@@H]([C@@H](C)O)C(=O)N[C@@H](C)C(=O)N[C@@H]([C@@H](C)O)C(=O)N1)[C@@H](C)O
B3: [19CD]-isoGlu-R-C( )-QTAT-C( )-ATERLAHFLQRF-Gly(Me)-A-Ile(Me)-LSSTEVGSNTP-NH2 (Compd. 96) (peptide)
peptide: {C20 diacid-γGlu}-RCQTATCATERLAHFLQRF[Sar]A[NMeI]LSSTEVGSNTP-NH2
modifications: disulfide 2-7
SMILES: CC[C@H](C)[C@@H](C(=O)N[C@@H](CC(C)C)C(=O)N[C@@H](CO)C(=O)N[C@@H](CO)C(=O)N[C@H](C(=O)N[C@@H](CCC(=O)O)C(=O)N[C@H](C(=O)NCC(=O)N[C@@H](CO)C(=O)N[C@@H](CC(N)=O)C(=O)N[C@H](C(=O)N1CCC[C@H]1C(N)=O)[C@@H](C)O)C(C)C)[C@@H](C)O)N(C)C(=O)[C@H](C)NC(=O)CN(C)C(=O)[C@H](Cc1ccccc1)NC(=O)[C@H](CCCNC(=N)N)NC(=O)[C@H](CCC(N)=O)NC(=O)[C@H](CC(C)C)NC(=O)[C@H](Cc1ccccc1)NC(=O)[C@H](Cc1c[nH]cn1)NC(=O)[C@H](C)NC(=O)[C@H](CC(C)C)NC(=O)[C@H](CCCNC(=N)N)NC(=O)[C@H](CCC(=O)O)NC(=O)[C@@H](NC(=O)[C@H](C)NC(=O)[C@@H]1CSSC[C@H](NC(=O)[C@H](CCCNC(=N)N)NC(=O)CC[C@H](NC(=O)CCCCCCCCCCCCCCCCCCC(=O)O)C(=O)O)C(=O)N[C@@H](CCC(N)=O)C(=O)N[C@@H]([C@@H](C)O)C(=O)N[C@@H](C)C(=O)N[C@@H]([C@@H](C)O)C(=O)N1)[C@@H](C)O
B4: [19CD]-isoGlu-R-C( )-QTAT-C( )-ATDRLAHFLQRSSF-Gly(Me)-A-Ile(Me)-LSSTEVGSGT-Hyp-NH2 (Compd. 91) (peptide)
peptide: {C20 diacid}-[γGlu]RCQTATCATDRLAHFLQRSSF[Sar]A[NMeI]LSSTEVGSGT[Hyp]-NH2
modifications: disulfide 3-8
SMILES: CC[C@H](C)[C@@H](C(=O)N[C@@H](CC(C)C)C(=O)N[C@@H](CO)C(=O)N[C@@H](CO)C(=O)N[C@H](C(=O)N[C@@H](CCC(=O)O)C(=O)N[C@H](C(=O)NCC(=O)N[C@@H](CO)C(=O)NCC(=O)N[C@H](C(=O)N1C[C@H](O)C[C@H]1C(N)=O)[C@@H](C)O)C(C)C)[C@@H](C)O)N(C)C(=O)[C@H](C)NC(=O)CN(C)C(=O)[C@H](Cc1ccccc1)NC(=O)[C@H](CO)NC(=O)[C@H](CO)NC(=O)[C@H](CCCNC(=N)N)NC(=O)[C@H](CCC(N)=O)NC(=O)[C@H](CC(C)C)NC(=O)[C@H](Cc1ccccc1)NC(=O)[C@H](Cc1c[nH]cn1)NC(=O)[C@H](C)NC(=O)[C@H](CC(C)C)NC(=O)[C@H](CCCNC(=N)N)NC(=O)[C@H](CC(=O)O)NC(=O)[C@@H](NC(=O)[C@H](C)NC(=O)[C@@H]1CSSC[C@H](NC(=O)[C@H](CCCNC(=N)N)NC(=O)CC[C@H](NC(=O)CCCCCCCCCCCCCCCCCCC(=O)O)C(=O)O)C(=O)N[C@@H](CCC(N)=O)C(=O)N[C@@H]([C@@H](C)O)C(=O)N[C@@H](C)C(=O)N[C@@H]([C@@H](C)O)C(=O)N1)[C@@H](C)O
B5: [19CD]-isoGlu-R-C( )-QTAT-C( )-ATERLA-Aad-FLQRSSF-Gly(Me)-A-Ile(Me)-LSSTEVGSNTP-NH2 (Compd. 93) (peptide)
peptide: {C20 diacid}-[γGlu]RCQTATCATERLA[Aad]FLQRSSF[Sar]A[NMeI]LSSTEVGSNTP-NH2
modifications: disulfide 3-8
SMILES: CC[C@H](C)[C@@H](C(=O)N[C@@H](CC(C)C)C(=O)N[C@@H](CO)C(=O)N[C@@H](CO)C(=O)N[C@H](C(=O)N[C@@H](CCC(=O)O)C(=O)N[C@H](C(=O)NCC(=O)N[C@@H](CO)C(=O)N[C@@H](CC(N)=O)C(=O)N[C@H](C(=O)N1CCC[C@H]1C(N)=O)[C@@H](C)O)C(C)C)[C@@H](C)O)N(C)C(=O)[C@H](C)NC(=O)CN(C)C(=O)[C@H](Cc1ccccc1)NC(=O)[C@H](CO)NC(=O)[C@H](CO)NC(=O)[C@H](CCCNC(=N)N)NC(=O)[C@H](CCC(N)=O)NC(=O)[C@H](CC(C)C)NC(=O)[C@H](Cc1ccccc1)NC(=O)[C@H](CCCC(=O)O)NC(=O)[C@H](C)NC(=O)[C@H](CC(C)C)NC(=O)[C@H](CCCNC(=N)N)NC(=O)[C@H](CCC(=O)O)NC(=O)[C@@H](NC(=O)[C@H](C)NC(=O)[C@@H]1CSSC[C@H](NC(=O)[C@H](CCCNC(=N)N)NC(=O)CC[C@H](NC(=O)CCCCCCCCCCCCCCCCCCC(=O)O)C(=O)O)C(=O)N[C@@H](CCC(N)=O)C(=O)N[C@@H]([C@@H](C)O)C(=O)N[C@@H](C)C(=O)N[C@@H]([C@@H](C)O)C(=O)N1)[C@@H](C)O
B6: [19CD]-isoGlu-R-C( )-NTAT-C( )-ATQRLA-Aad-FLQRSSF-Gly(Me)-A-Ile(Me)-LSSTEVGSST-Hyp-NH2 (Compd. 87) (peptide)
peptide: {C20 diacid-γGlu}-RCNTATCATQRLA[Aad]FLQRSSF[Sar]A[NMeI]LSSTEVGSST[Hyp]-NH2
modifications: disulfide 2-7
SMILES: CC[C@H](C)[C@@H](C(=O)N[C@@H](CC(C)C)C(=O)N[C@@H](CO)C(=O)N[C@@H](CO)C(=O)N[C@H](C(=O)N[C@@H](CCC(=O)O)C(=O)N[C@H](C(=O)NCC(=O)N[C@@H](CO)C(=O)N[C@@H](CO)C(=O)N[C@H](C(=O)N1C[C@H](O)C[C@H]1C(N)=O)[C@@H](C)O)C(C)C)[C@@H](C)O)N(C)C(=O)[C@H](C)NC(=O)CN(C)C(=O)[C@H](Cc1ccccc1)NC(=O)[C@H](CO)NC(=O)[C@H](CO)NC(=O)[C@H](CCCNC(=N)N)NC(=O)[C@H](CCC(N)=O)NC(=O)[C@H](CC(C)C)NC(=O)[C@H](Cc1ccccc1)NC(=O)[C@H](CCCC(=O)O)NC(=O)[C@H](C)NC(=O)[C@H](CC(C)C)NC(=O)[C@H](CCCNC(=N)N)NC(=O)[C@H](CCC(N)=O)NC(=O)[C@@H](NC(=O)[C@H](C)NC(=O)[C@@H]1CSSC[C@H](NC(=O)[C@H](CCCNC(=N)N)NC(=O)CC[C@H](NC(=O)CCCCCCCCCCCCCCCCCCC(=O)O)C(=O)O)C(=O)N[C@@H](CC(N)=O)C(=O)N[C@@H]([C@@H](C)O)C(=O)N[C@@H](C)C(=O)N[C@@H]([C@@H](C)O)C(=O)N1)[C@@H](C)O

What follows are binders tested against T1, human amylin receptor 3 (hAMYR3), hCTR2 … (assay: cell-based or functional assay).

Row | hAMYR3 EC50 (nM); cAMP induction | Binder
1 | 0.2 nM | B1
2 | 0.22 nM | B2
3 | 0.28 nM | B3
4 | 0.17 nM | B4
5 | 0.43 nM | B5
6 | 0.29 nM | {C20 diacid}-[γGlu]RCGTATCATERLAHFLTRSSF[Sar]A[NMeI]LSSTEVGSST[Hyp]-NH2 (disulfide 3-8) [[19CD]-isoGlu-R-C( )-GTAT-C( )-ATERLAHFLTRSSF-Gly(Me)-A-Ile(Me)-LSSTEVGSST-Hyp-NH2 (Compd. 9)]
7 | 0.13 nM | B6
8 | 0.24 nM | {C20 diacid-γGlu}-RCQTATCATERLAHFLQRSSF[Sar]A[NMeI]LSSTEVGSGT[Hyp]-NH2 (disulfide 2-7) [[19CD]-isoGlu-R-C( )-QTAT-C( )-ATERLAHFLQRSSF-Gly(Me)-A-Ile(Me)-LSSTEVGSGT-Hyp-NH2 (Compd. 90)]
